Assay results as given in the nanobody polyreactivity screen of Harvey et al. (2022).

Experiment: yeast display, Sf9 membrane polyspecificity reagent, FACS + sequencing; frameworks hold sequencing errors
How it was run: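 Nanobodies from a synthetic yeast display library (Saccharomyces cerevisiae BJ5465), induced 36–48 hours with galactose, were stained 1 hour at 4 °C with 10% biotinylated, detergent-solubilized Sf9 membrane reagent, enriched on streptavidin microbeads, then FACS-sorted. Anti-HA (expression) and streptavidin (reagent binding) fluorescence set low and high (top ~1%) gates. Polyreactivity labels come from the gate of origin. Genes were colony-PCR amplified, MiSeq 2 × 250 sequenced and filtered by CDR length.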

| Sequence | polyreactivity (PSR sort gate) |
| --- | --- |
| QVQLVESGGGLVQAGGSIRSSCAASGRTFGSNAMGWSRQAPGKERELVAAISSTVSTNYADSVKGRFTISRDNAKNTVYLQMNSLKPEDTAVYYCNVTRHYSYVSEYDYWGQGTQVTVSS | low polyreactivity |
| QVQLVESGGGLVQAGGSLCLSCAGSGIFVYKAMGRYRQAPGKEREFVAAINKSGASTFYADSVKGRFTISRDNAKKTVYLQMNSLKPEDTAVYYCAKVPHVYRHYYYWGQGTQVTVSS | low polyreactivity |
| QVQLVESGGGLVQAGGSLGLSCAASGFTFHKYAMGWYRQAPGKERELVAAITSSGGSTYYADSVKGRFTISRDNAKNTVYLQMNSLKPEDTAVYYCAVGFYYFSSWYSYDYWGQGTQVTVSS | high polyreactivity |
| QVQLVESGGGLVQAGGSLGLSCAASGRSFYFYAMGWYRQAPGKERELVAALSRGGGTNYADSVKGRFTLSRDNATNTVYLQMNSLKPEDTAVYDCAARPGPYWTVTFRSPKYYYWGQGTQVTVSS | high polyreactivity |
| QVQLVESGGGLVQAGGSLGLSCAASGSNFHSYAMGWYRQAPGKERELVGAISWCGGSTNYSDSVKGRFTISRDNAKNTVYLQMNSLKPEDTAVYYCAAKEFGSDEYKTGSGYDYWGQCTQVTVSS | low polyreactivity |
| QVQLVESGGGLVQAGGSLGLSCAASGSTFQFYAMGWNRQAPGKERELVAAISWSSGSTYYADSVKGRFTISRDNAKNSVYLQMNSLKPEHTAVYYCNARYPWSYRYWDGGYWGQGTQVTVSS | low polyreactivity |
| QVQLVESGGGLVQAGGSLLISCAASGSIFTCYAMGWYRQAPGKERELVAASTRGGSTYADSEKGRFTISRDNAKNTVYLQRKSLIPDVTGVYYCNAVYGVYDFKYWGQGTQVSVSS | low polyreactivity |
| QVQLVESGGGLVQAGGSLLLSCAASAFTSDVYAMGWYRQAPGKETELVADISARGGSTYYADSVKGRFTISRDNAKNTVYLQMNSLKPEDTAVYYCAAEVYVGTIGFYADFFYYPVYYWVQGTQVTVSS | low polyreactivity |
| QVQLVESGGGLVQAGGSLLLSCAASGFIFDYNAMGGYRPAPGKETELVAAISRSGGSTYADSVKGRFTFSRDNAMNTVYLQMNSLKPEDTAVYYCAADILSRSRSRRVDYWGQGTQVTVSS | low polyreactivity |
| QVQLVESGGGLVQAGGSLLLSCAASGFTFSGYVMGWYRQAPGKERELVAAISNSGGRTYADSVKGRFTISRDNAKNTVYLQMNSLKPEDTAVYYCAKKPGGFSQASRVDYDYWGQGTQVTVSS | low polyreactivity |
| QVQLVESGGGLVQAGGSLLLSCAASGFTFWNYAMGWYRQAPGKEMEFVASITWSGGSTYYADSVKGRFTISSDNAKNTVYLQMNSLKPEDTAVYYCAVGGSGYGLYGVGYALDYWGQGTQVTVSS | high polyreactivity |
| QVQLVESGGGLVQAGGSLLLSCAASGFTFYGYVMGWYRQAPGKERELVAGITWRGGSTYYADSVKGRFTISRDNAKNTVYLQMNSLKPEDTAVYYCAAKSFRRGTFDYWGQGTQVTVSS | high polyreactivity |
| QVQLVESGGGLVQAGGSLLLSCAASGGTIRYYAMGWSRQSPGKERELVAAISRGGTNTYYADSVKGRFTISRDNAKNTVYLQRNSLKPDDTAVYYCSAKRYSRYNYWGQGTQVTVSS | high polyreactivity |
| QVQLVESGGGLVQAGGSLLLSCAASGIIFGTNAMGWYRQAPGKERELVAGITSSGDSTYYADSVKGRFTISRDNAKNTVYLQMNSLKPEDTAVYYCAREIRTREFDSWGQGTQVTVSS | low polyreactivity |
| QVQLVESGGGLVQAGGSLLLSCAASGIIFTRYVMGWYRQAPGKERELVATIRIGGSTTYADSVKGRFTISRDNAKITVYLQMYSLKPEDTAVYYCAADTWYITTYGGAGSYAYGFYYWGQGTQVTVSS | low polyreactivity |
| QVQLVESGGGLVQAGGSLLLSCAASGITFKWNDMGWYRQAPGKEREFVAAITGSTGSTFYADSVKGRFTISRDNAKNSVYLQMNSLNTEDTAVYYCAAGPWFYYWGQGTQVTVSS | low polyreactivity |
| QVQLVESGGGLVQAGGSLLLSCAASGRILWRYAMGWYRQARGKERELVAGITYSGGRTYYADSVKVRFTISRDNAKNTVYLQMNSLKPEDTAVYYCNADYADSPYFYLLLDYWGQGTQVTVSS | low polyreactivity |
| QVQLVESGGGLVQAGGSLLLSCAASGSIYSYYAMGWYRQAPGKERELVAAISQSGGTTYYADSVKGRFTISRDNAKNTVYLQMNSLKPEDTAVYYCAARATSSFDTQYYYWGQGTQVTVSS | low polyreactivity |
| QVQLVESGGGLVQAGGSLLLSCAASGSTFAPYAMAWYRQAPRKERELVATISASGGTTYYADSVKGRFTISRDNAKNTVYLQMNSLKPEDTAVYYCAKRRVWWPAHRSYLYASEFGYWGQGTQVTVSS | low polyreactivity |
| QVQLVESGGGLVQAGGSLLLSCAASGSTFRYYAMGWYRPAPGKERELVAATTSGGSTYYADSVKGRFTISRDNAKNTVYLQMNSLKPEDTAVYYCAKSISRYFFYRPSAAAYGYDYWGQGTQVTVSS | high polyreactivity |
| QVQLVESGGGLVQAGGSLLLSCAASGSTFSYYAMGWYRPAPGKERELVATITKRGGSTYYADSVKGRFTISRDNAKNTFYVQLNSLKPEDTAVYDCAASYPSRWRATYPTGFEYWGQGTQVTVSS | high polyreactivity |
| QVQLVESGGGLVQAGGSLLLSCAASGSTFYLYAMGWYRQAPGKEMELVASISQSGGSTFYADSVKGRFTISRDNAKYTVYLQMNSLKPEDTAVYYCAADPNRSTDTVVPGFDYWGQGTQVTVSS | high polyreactivity |

| Sequence | polyreactivity (PSR sort gate) |
| --- | --- |
| QVQLVESGGGLVQAGGSLLLSCAGTARNFTYNAMGWYRQAPGKERELVARITSGGNTNYADSVKGRFTISRDNAKNTVYLQMNSLKPEDTAVYYGATGLFWFTNRYGSWGQGTQVTVSS | low polyreactivity |
| QVQLVESGGGLVQAGGSLLLSCASSGFIFTKYTMGWYRLAPGKERELVAAITGRGTSTYADSVKGRFSMSRDNAKNTVYLQMNSLIPEDTAVYYCAAVGWFADFLFSDINGYYWGQGTQVTVSA | low polyreactivity |
| QVQLVESGGGLVQAGGSLPLRCAASGITFYGYTMGWYRQAPGKERELVAAITSVGSTYYADSVKGRFTISRDNAKNTVYLQMNSLKPEDTAVYYCNARPKFRTYNYWGQGTQVTVSS | high polyreactivity |
| QVQLVESGGGLVQAGGSLPLSCAASASIFSYYDMGWYRQAPGKERELVAAISWSGGSTYYADSVKGRFTISRDNAKNTVYLQMNSLKPEDTAVYYCAAGTYPYYWGQGTQVTVSS | low polyreactivity |
| QVQLVESGGGLVQAGGSLPLSCAASGITLYLYVMGWYRQAPGKEREFVAAIRWAGGSTYYADSVKGRFTISRDNAKNTVYLHMNSLKPEDTAVYYCNAEVYGYYSARRPGYEYWGQGTQVTVSS | low polyreactivity |
| QVQLVESGGGLVQAGGSLPLSCAASGRIYGSYAMGWYRQAPGKERELVADISRRGGGTYYADSVKGRFTISRDNAKNTVYLQMNSLKPEDTAFYYCAKDWYGRYYYWGQGTQVTVSS | high polyreactivity |
| QVQLVESGGGLVQAGGSLPLSCAASGRTFDANAMGWSRQAPGKERELVAAISSDGSTNYADSVKGRFTISRDNAKNTVYLQMNSLKPEDTAVYYCATDGKPLIRYDYDYWGQGTQVTVSW | high polyreactivity |
| QVQLVESGGGLVQAGGSLPLSCAASGSIFDGYAMGWYSQAPGKDRELDAGISKSGGRTYYADSVKGRFTISRDNAKNTVYLQMNSLKPEDTAVYYCATPGIRYDRVYRYDYWGQGTQVTVSS | high polyreactivity |
| QVQLVESGGGLVQAGGSLPLSCAASGSTFRYNAMGWYRQAPAKERELVAAISSGSSTNYADSVKGRFTISLDNAKNTVYLQMKSLKPEDTAVYYCARRPFYYHQLDDDYWGQGTQVTVSS | low polyreactivity |
| QVQLVESGGGLVQAGGSLPLSCAASGSTFSPYDMGWYIQAPGKDRELVAVITGSDGTYYADSVKGRFTITRDNAKNTVYVQMNSLKPEDTAVYYCATDWNFGRWYTLGVEMDYWGQGTQVTVSS | low polyreactivity |
| QVQLVESGGGLVQAGGSLPLSCAASRLIFTPYAMGWYIQAPGKERELVAAINYGGSRTYYADSVKGRFTISRDNAKNTVYLQMNSLKPEDTAVYYCAARGYTLSYVDMYYWGQGTQVTVSS | high polyreactivity |
| QVQLVESGGGLVQAGGSLPLSCASSGFTLVTYAMGWYRQAPGKERELVAAISSSGTSTYYADSVKARFTISRDNAKNTVYLQMNSLKPEDTAVYYCAVDDTHPFGPDGGGDYWGQGTQVTVSS | low polyreactivity |
| QVQLVESGGGLVQAGGSLPLSIAASGRIFHIYAMGWYRQAPGKERELVAAISGSTSYADSVKGRFTISRDNAKNTVNLQMNSLKPEDKAVYYCAARALLPNGEYWGQGTQVTVSS | low polyreactivity |
| QVQLVESGGGLVQAGGSLRFSCAASGFIFTYNAMGWYRQAPGKERELVAAITRNGVSTHYADSVKGRFTISRDNAKNSVYLQMNSLKPEDTAVYYCAADPRGWRHYYWGQGTQVTVSS | low polyreactivity |
| QVQLVESGGGLVQAGGSLRFSCAASGFIFVVNAMGGSRQAPGKEREFVAVISSSTGSTYYADSVKGRFTISRDNAKTTVYLQMNSLKPEDTAVYYCAAASRRRRPLKRMDYWGQGTQVTVSS | low polyreactivity |
| QVQLVESGGGLVQAGGSLRFSCAASGFTFSSNAMGWYRQAPGKERELVAAITASGASTYYADSVKGRFTISRDHAKNTVYLQMNSLKPEDTAVYYCAVKTSPRRYYWGQGTQVTVSS | high polyreactivity |
| QVQLVESGGGLVQAGGSLRFSCAASGFTFVYYVMGWYRQAPGKERELVAAINAGGGSTYYADSVKGRFTISRDNAKNTVYLQMNSLKPEDTAVYYCNARVRLGRNWSSYYYWGQGTQVTVSS | high polyreactivity |
| QVQLVESGGGLVQAGGSLRFSCAASGFTFYPNTMGWYRQAPGTERELVAAISSSGGRTYYADSVKGRFTISRDNAKNTVYLQMNSLKPEDNAVYYCNAAKWLTSGGLDYWGQGTQVTVSS | high polyreactivity |
| QVQLVESGGGLVQAGGSLRFSCAASGIIFYYKTMGLYRQAPGKERELVASITWSGDTTYYAYSVKGRYTISRDNAKNSVYLQMNSLKPEDTAVYYCAAACYWYPSYSSYLGMYYWGQGTKVTVSS | low polyreactivity |
| QVQLVESGGGLVQAGGSLRFSCAASGLTFNHNAMGWYRQAPGKERELVAAISRRGGSTYYADSVKGRFTISRDNAKNTVYVQMNSLKPEDTAVYYCNKDFPTLYSRGRYIYWGQGTQVTVSS | high polyreactivity |
| QVQLVESGGGLVQAGGSLRFSCAASGNIIDLYAMGWYRQARGQERVLVAAITRSSSRTYYADSVKGRFTISRDIAKNTVYLQMNSLKPEDTAVYYCRANQVNRLDYWGQGTQVTVSS | high polyreactivity |
